The values below come from the nanobody polyreactivity screen of Harvey et al. (2022).

The nature of this data set: yeast display, Sf9 membrane polyspecificity reagent, FACS + sequencing; frameworks hold sequencing errors. The gist of the method: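 After 36–48 hours of galactose induction, yeast (Saccharomyces cerevisiae BJ5465) displaying a synthetic nanobody library were stained at 4 °C for 1 hour with 10% biotinylated, detergent-solubilized Sf9 membrane reagent. Streptavidin microbeads enriched the stained cells before FACS sorting into low and high (top ~1%) gates on anti-HA and streptavidin fluorescence. Each clone's polyreactivity label reflects its gate of origin.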
Turning to “QVQLVESGGGLVQAGGSLRLSCAASGSIFYDYEMGWYRQAPGKERELVASINTGGSTNYADSVKGRFTISRDNAKNTVYLKMNSLKPEDTAVYYCNAPRGYPTSANHLDYWGQGTQVTVSS”, the “polyreactivity (PSR sort gate)” value is recorded as “low polyreactivity”. The value for “QVQLVESVGGLVQAGGSLRLSCAASGSIFWPNAMGWYRQAPGKERELVATISGSGGSTYYADSVKGRFTISRDNAKNTVYLQMNSLKPEDTAVYYCAADYRYGRYDYWGQGTQVTVSS” was “high polyreactivity”; that for “QVQLVESGGGLVQAGGSLRLSCAASGSIFRYYVMGWYRQAPGKERELVATISRSGGRTYYADSVKGRFTISRDYAKNTVYLQMNSLKPEDTAVYYCARTYGGYPTTYDYWGQGTQVTVSS” was “high polyreactivity”. In the case of “QVQLVESGGGLVQAGGSLRLSCAASGGTFRTYTMGWYRQAPGRVRELVAGISSRGGSTYYADSVKGRFTISRDNAKKTLYLQMNSLKPEDTAVYNCAVRHLNKRRDDYWGQGTQVTVSS”, the “polyreactivity (PSR sort gate)” value is reported as “high polyreactivity”. As for “QVQLVESGGGLVQAGGSLRLSCAASGITFSGNAMGWYRQAPGKERELVAAITWRGDNTYYADSVKGRFTISRDNAKNTVYLQMNSLKPEDTAVYSCAAKSPLFGLTSYPGPDDSWGQGTQVTVSS”, the entry is “low polyreactivity”.

As to “QVQLVESGGGLVQAGGSLRLSCAASGSTFTYYAMGWSRQAPGKERELVAVINKSGGRTNYADSVKGRFTISRDNPKNTVYLQMNSLKPEDTAVYYCNAYYTSFYTGDDYWGQGTQVTVSS”, the “polyreactivity (PSR sort gate)” value is listed as “high polyreactivity”. Turning to “QVQLVESGGGLVQAGGSLRLSCAASGRIFTGNSMGWYRQAPGKERELVAAITSSGGSTYYADSVKGRFTISRDNAKNTVYLQMNSLKPDDTAVYYCAALYSSWWSWYYYWGQGTQVTVSS”, the “polyreactivity (PSR sort gate)” value was “high polyreactivity”.

Consider “QVQLVESGGRLVQAGGSLRLSCAASGSTFTKYALGWYRPAPGKERELVAAISRSGGSTYYADSVKGRFSISRDNAKNTVYLQMNSLKPEDTAVYYCAARDSSRNYFGDGARDYWGQCTQVTVSS”, for which the “polyreactivity (PSR sort gate)” value is reported as “high polyreactivity”.

“QVQLVESGGGLVQAGGSLRLSCAASGRTFYRYAMGWYRQAPGKERELVAAITTGGGSTYYADSVKGRFTISRDNAKNTVYLQMNSLKPEDTAVYYCNVYSSYTRRTLGDYWGQGTQVTVSS”: the “polyreactivity (PSR sort gate)” value is given as “high polyreactivity”. As for “QVQLVESGGGLVQAGGSLRLSCAASGFIYSSYAMGWYRQAPGKERELVAAITRNGGSTYYADSVKGRFTISRDNAKNTVYLQMNSLKPEDTAVYYCAAPRWRGVGRFDYWGQGSQVTVSS”, the entry is “high polyreactivity”. The value for “QVQLVESGGGLVQAGGSLRLSCAASGITFPLYVMGWSRQAPGKERELVAAISASGGSTYADSVKGRFTISRDNAKNTVYLQMNSLKPEDTAVYYCNADVYVGYDYDYWGQGTLVTVSS” was “low polyreactivity”; that for “QVQLVESGGGLVQAGGSLRLSCAASGRTFGRYVMGWYRQAPGKERELVAAISKGGTSPYYADSVKGRFTISRDNAKNTVYLQMNSLKPEDTAVYYCAAGSFARYTYVPRYDYWGQGTQVTVSS” was “high polyreactivity”; that for “QVQLVESGGGLVQAGGSLRLSCAASGYIFSINAMGWYRQAPGKERELVAAITSSGGSTYYADSVKGRFTISRDNAKNTVYLQMNSLKPEDTAVYYCNAYVRRTRDYDYWGQGTQVTVSS” was “high polyreactivity”.

“QVQLVESGGGLVQAGGSLRLSCAASGSTFSFYAMGVYRQAPGKERELVAAISKSGGRTYYADSVKGRFTISRDNAKYTVYLQMNSLKPEDTAVYYCAARGNGQYVGKYYYWGQGTQVTVSS”: the “polyreactivity (PSR sort gate)” value is given as “high polyreactivity”.

Regarding “QVQLVESGGGLVQAGGSLRLSCAASGSTFGGYVMGWYRQAPGKERELVAAISGNGASTTYADSVKGRFTISRDNAKNTFYLQMNSLIPEDTAVFYCAAMYRKAHSDYDYWGQGSQVTVSS”, the “polyreactivity (PSR sort gate)” value is recorded as “low polyreactivity”. The value for “QVQLVESGGGLVQAGGSLRLSCAASGFIFYKYAMGWYRQAPGKERELVAAITWRGGRTNYADSVKGRFTISRDNAKNTVYLQMNSLKPEDTAVYYCAADPWYSSYYYSYEYWGQGTQVTVSS” was “high polyreactivity”; that for “QVQLEESGGGLVQAGGSLRLSCAASGLIFITYAMGWYRQAPGKERELVATITLRGGSTYYADSVKGRFTISRDNAKNTVYLQMNSLKPEDTAVYYCAADVGYWGRSRGYPSDDYDYWGQGTQVTVSS” was “low polyreactivity”. The value for “QVQLVESGGGLVQAGGSLRLSCAASGRIFTSYVMGWDRQAPGKERELVAAITRSGGSTYYADSVKGRFTISRDNAKNTVYLQMNSQKPEDTAVYYCAAGVRGGGGRYRYGYWGQGTQVTVSS” was “high polyreactivity”; that for “QVQLVESGGGLVQAGGSLRLSCAASGRTIASYAMGWYRQAPGKERELVAAITSGGSTYYADSVKGRFTISRDNAKNTVYLQINSLKPEDTAVYYCARKHAIWRGYDYWGQGNQVTVSS” was “low polyreactivity”; that for “QVQLVESGGGLVQAGGSLRLSCAASGLIFWLNAMGWYRQAPGKERELVATITAGGDDTNYADSVKGRFTISRDNAKNTVYLQMNSLKPEDTAVYYCAKSRTRSGHYGYDYWGQGTQVTVSS” was “low polyreactivity”.

Take “QVQLVESGGGLGQAGGSLRLSCAASGRILKYYDMGWYRQAPGKERELVAAISVSGTSTYYADSVKGRFTISRDNAKNTVYLQMNSLKPEDTAVYYCATATGRYSFDYWGQGAQVTVSS”: the “polyreactivity (PSR sort gate)” value is “low polyreactivity”. The value for “QVQLVESGGGLVHAGGSLRLSCAASGYTFTYYVMGWYRQAPGKEREFVAGIRNGGGRMYYADSVKGRFTISRDNAKNTVYFQMNSLKPEDTAVYYCNAGYGTYYSGVYWRGEMDYWGQGTQVTVSS” was “high polyreactivity”; that for “QVQLVESGGGLVQAGGSLRLSCAASGSTFQNYAMGWYRQAPGKERELVAAINWSGGSTYYADSVKVRFTISRDNAKNTVYLQMNSLKPEDTAVYYCATDDPLAYGSFGPYQPYDYWGQGTQVTVSS” was “low polyreactivity”. As for “QVQLVESGGGLVQAGGSLRLSCAASGSILYVYALAWYRQAPGKERALVAAIYSGASTYYADSVKGRFTISPDNAKNTVYFQMNSLIPEETAVYYCAAYVFFQTYFSYYVEGDYWGQGTQVTVSS”, the entry is “low polyreactivity”; as for “QVQLVESGRGLVQAGGSLRLSCAASGRTFAVSTMGWYRKAAGQERELVATISWSGGSTYYADSVKGRFTISRDNAKNTVYLQMNSLKPEDTAVYFCNADFTWGSYERDYWGQGTQGTVSS”, “high polyreactivity”; as for “QVQLVESGGGLVQAGGSLRLRCAASGSIFEEYAMGWSRPAPGKERELVAAITSRGGSTYYADSVKGRFTISRDNAKNNVYLQMNSLKPEDTAVYYCAAGVASLTTGSYDYWGQGTQVTVSS”, “low polyreactivity”. On to “QVQLVESGGGLVQAGGSLRLSCAASGSIFYRYAMGWYRQAPGKERELVAAISSTGSTYYADSVKGRFTISRDNAKNTVYLQMNSLKPEDTAVYYCAARQGYRSYRRYDYWGQGTQVTVSS”, for which the “polyreactivity (PSR sort gate)” value was “high polyreactivity”. For the sequence “QVQLVESGGGLVQAGGSLRLSCAASGRIFGRNTMGWYRQAPGKERELVAVISFRGGSTYADSVKGRFTISRDNAKNTVYLQMNSLKPEDTAVYYCARTAYSTRPYRFDYWGQGTQVTVSS”, the “polyreactivity (PSR sort gate)” value was “high polyreactivity”. As for “QVQLVESGGGLVQAGGSIRLSCAASGRTFNYYAMGWYRQAPGKERELVAAIDSDGNTYYADSVKGRFTISRDNAKNTVYLQMNSLKPDDTAVYYCAADTHVNPNYDYWGQGTQVTVSS”, the entry is “low polyreactivity”; as for “QVQLVESGGGLVQAGGSLRLSCAASGFIFHKYAMGWYRQAPGKERELVARITGSGASTFYADSVKGRFTISRDNAKNTVYLQMNSLKPEDTAVYYCAATIGSLLKYNRHRYYYWGQGTQVTVSS”, “high polyreactivity”.

As for “QVQLVESGGGVVQAGGSLRLSCAASGYIFFANAMGWYRQAPGKERELVAAISSDGRTYYADSVKGRFTISRDNANNTVYLQMNSLKPEDTAVYYSADYFSGLTYGYYVAGYDYWGQGTQVTVSS”, the “polyreactivity (PSR sort gate)” value is reported as “low polyreactivity”. “QVQLVESGGGLVQAGGSLRLSCAASGGTLASYAMGRYRQATGKERELVAAITRGGGSTHYADSVKGRFTISRDNAKNTVYLQMNSLKPADTAVYYCNARVRPGYGYWGQGTQVTVSS”: the “polyreactivity (PSR sort gate)” value is “high polyreactivity”. As for “QVQLVESGGGLVQAGGSLRLSCAASGSIFVYYTMGWYRQSPGKEREMVAAITYSGGSKYYADSVKGRFTISRDNAKNTVYLQMNRLKPEDTAVYYCNAKSAAHRYVRRHDYWGQGTQVTVSW”, the entry is “low polyreactivity”; as for “QVQLVESGGGIVQAGGSLRLSCAASGFTFPVYAMGWYRQAPGKEREFVAAITYIGGSTYADSVKGRFTISRDNAKNTVYLQMNSLKPEDTAVYYCAADIITEYWADYLGYLEYDYWGQGTQVTVSS”, “low polyreactivity”.

In the case of “QVQLVESGGGLVHAGGSLRLSCAASGRTFVLYVMGWYRQAPGKETEFVADINAGGGSTYYADSVKGRFTISRDNAKNTVYLQMNSLKPEDTAVYYCAATRVLGQLFRFGYWGQGTQVSVSS”, the “polyreactivity (PSR sort gate)” value is listed as “low polyreactivity”. As for “QVQLVESGGGLVQAGRSLRLSCAASVSIFRPNAMGWYRQAPGKERDLVAAISSSGGSTYYSDSVKGRFTISRDNAKNTVYLQMNSLKPDDTAVYYCAAESLSTWIHSRDSWGQGTQVTVSS”, the entry is “low polyreactivity”. Take “QVQLVESGGGLVQAGGSLRLSCAASGRTLPVYAMGWYRQAPGKERELVAAITYSGGSTSYADYVKGRFTISRDNAKNTVYLQMNTLKPDDTAVYYCAAGYRYSEYYYWGQGTQVTVSS”: the “polyreactivity (PSR sort gate)” value is given as “low polyreactivity”. The value for “QVQLVESCGGLVQAGGSLRLSCAASGSTFVYYAMGWYRQAPGKERELVAAISSGGSTYYADSVKGRFTISRDNAKNTVFLQMNSLKPEDTAVYDCAAKFGWGYTTYYYCGQGTQVTVSS” was “high polyreactivity”; that for “QVQLVESGGGLVQARGRLRLSCSASGRTFYGYAMGWYRQATGKERELVASISWSTGSTHYADSVKGRFTISRDNAKNTVYLQMNSLKPEDTAVYYCAAPFWRDSYVQIDYDFWGQGTQVTVSS” was “low polyreactivity”; that for “QVQLVESGGGLVQAGGSLRLSCAASGLTFKSNAMGWYRPAPGKERELVASISKRGGTTYYADSVKGRFTISRDNAKNTVYLQMNSLKPEDTAVYYCAAQSRATTYSWWTGSDYWGQGTQVTVSS” was “high polyreactivity”.
